Laboratory results: patent US20170137467A1 (CHROMOTEK, published 2017)
Substitutions are numbered along the chain they refer to.

What was measured:
[1] = target: T1, BC2T A6R peptide (BC2TA6X library) (human); assay: BC2TA6X library pulldown with immobilized Nb, LC-MS of the supernatant
T1 construct: also called arginine at position 6
T1 peptide: Ac-PDRKARVSHWQQ-NH2
Experimental: (§1) To investigate the binding specificity of the BC2T and derived mutants peptide libraries for each amino acid position of the sequence […] (SEQ ID NO:4) were synthesized with acetyl and amide groups located at the N-termini or C-termini respectively (Intavis). […] Incubations were performed in 300 μl PBS/0.01% CHAPS for 1 h on a HulaMixer (Life Technologies). Subsequent to a centrifugation step 10 μl supernatant were analyzed in a LC-MS procedure. Peptides were separated using an UltiMate3000 RSLCnano System (Thermo Scientific), composed of a C18 PepMap100μ-Precolumn (300 μm×5 mm; particle size: 5 μm; pore size: 100 Å—Thermo Scientific) and a C18 analytical column (Acclaim Rapid Separation LC (RSLC) Column: 150 mm×5 mm; particle size: 2.2 μm; pore size: 100 Å—Thermo Scientific). A step gradient was applied starting at 8% and ending after 20 min at 30% eluent B (80% acetonitrile, 20% H₂O, 0.1% formic acid). Peptides were analyzed using a FULL-MS-strategy detected by a Q Exactive Plus mass spectrometer (Thermo Scientific). As maximal injection time 100 ms was chosen while setting the AGC target to 3E6. The resolution was set to 70.000. Half-maximal signal areas were referenced to control precipitation approaches using a GFP-specific nanobody immobilized on agarose beads. All experiments were done in triplicates.

[2] = target: T2, BC2T A6K peptide (BC2TA6X library) (human); assay: as above
T2 construct: also called lysine at position 6
T2 peptide: Ac-PDRKAKVSHWQQ-NH2
Experimental: as §1

[3] = target: T3, mCherry-Vimentin with C-terminal BC2 tag (mCherry-VIMBC2T) (human, UniProt P08670 1-466); assay: immunoprecipitation from HEK293T lysate, immunoblot with anti-vimentin
T3 construct: Expressed in HEK293T or HeLa cells; also called mCherry-VimentinBC2T; not shown: mCherry fluorescent protein
Experimental: HEK293T cells transiently expressing eGFP, eGFPBC2T or BC2TeGFP, eGFP-PCNA, eGFP-PCNABC2T, mCherry-Vimentin, mCherry-VimentinBC2T were washed and harvested in phosphate buffered saline (PBS), snap-frozen in liquid nitrogen and stored at −20° C. Cell pellets were homogenized in 200 μl lysis buffer (10 mM Tris/Cl pH 7.5, 150 mM NaCl, 0.5% NP40, 1 μg DNaseI, 2 mM MgCl₂, 2 mM PMSF, 1× protease inhibitor mix M (Serva) by repeated pipetting for 40 min on ice. After a centrifugation step (10 min at 18.000×g) the protein concentration of each lysate was determined using a Pierce BCA Protein Assay Kit (Thermo Fisher Scientific) according to manufacturer's protocol and the protein solutions were adjusted with dilution buffer (10 mM Tris/Cl pH 7.5, 150 mM NaCl, 2 mM PMSF) to a concentration of 1 mg/ml. 2% of the supernatant were added to SDS-containing sample buffer (referred to as input). […] After a centrifugation step (2 min, 2500×g) the precleared supernatant was transferred to a new cup. 2% were added to SDS-containing sample buffer (referred to as non-bound). […] Samples were analyzed by SDS-PAGE followed by immunoblotting. Immunoblots were probed with indicated antibodies.

β-catenin peptide 85-99 = target: T4, β-catenin peptide 85-99 (human, UniProt P35222); assay: pepscan: 15-mer peptide on OVA-microspheres, biotinylated BC2-Nb, streptavidin-PE
T4 construct: synthetic 15-mer; additional N-terminal cysteine for coupling; also called Start 85 End 99
T4 peptide (looked up): QYAMTRAQRVRAAMF
From the text: As negative controls, microspheres comprising Ovalbumin and the Myc-peptide ([…]) covalently coupled to OVA-microspheres were used. […] Evaluation of the PE-signals were done in a Flexmap 3D (Luminex).

BC2T D2R = target: T5, BC2T D2R; assay: positional peptide library pulldown on immobilised Nb, LC-MS of supernatant; signal ratio to control GFP-Nb (1 = not captured, near 0 = captured)
T5 construct: positional scanning library member
T5 peptide: Ac-PRRKAAVSHWQQ-NH2
Summary of the method: (§2)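 Unbound peptide left in supernatant after 1 h pulldown in PBS/0.01% CHAPS measured by reversed-phase LC-MS (8–30% eluent B gradient, 20 min).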

BC2T P1Q = target: T6, BC2T P1Q; assay: as above
T6 construct: positional scanning library member
T6 peptide: Ac-QDRKAAVSHWQQ-NH2
Summary of the method: as §2

BC2T A5N = target: T7, BC2T A5N; assay: as above
T7 construct: positional scanning library member
T7 peptide: Ac-PDRKNAVSHWQQ-NH2
Summary of the method: as §2

BC2T A5P = target: T8, BC2T A5P; assay: as above
T8 construct: positional scanning library member
T8 peptide: Ac-PDRKPAVSHWQQ-NH2
Summary of the method: as §2

BC2T V7F = target: T9, BC2T V7F; assay: as above
T9 construct: positional scanning library member
T9 peptide: Ac-PDRKAAFSHWQQ-NH2
Summary of the method: as §2

BC2T R3N = target: T10, BC2T R3N; assay: as above
T10 construct: positional scanning library member
T10 peptide: Ac-PDNKAAVSHWQQ-NH2
Summary of the method: as §2

BC2T H9E = target: T11, BC2T H9E; assay: as above
T11 construct: positional scanning library member
T11 peptide: Ac-PDRKAAVSEWQQ-NH2
Summary of the method: as §2

T3 sequence (P08670 other isoform, or with tags, fused parts or gaps): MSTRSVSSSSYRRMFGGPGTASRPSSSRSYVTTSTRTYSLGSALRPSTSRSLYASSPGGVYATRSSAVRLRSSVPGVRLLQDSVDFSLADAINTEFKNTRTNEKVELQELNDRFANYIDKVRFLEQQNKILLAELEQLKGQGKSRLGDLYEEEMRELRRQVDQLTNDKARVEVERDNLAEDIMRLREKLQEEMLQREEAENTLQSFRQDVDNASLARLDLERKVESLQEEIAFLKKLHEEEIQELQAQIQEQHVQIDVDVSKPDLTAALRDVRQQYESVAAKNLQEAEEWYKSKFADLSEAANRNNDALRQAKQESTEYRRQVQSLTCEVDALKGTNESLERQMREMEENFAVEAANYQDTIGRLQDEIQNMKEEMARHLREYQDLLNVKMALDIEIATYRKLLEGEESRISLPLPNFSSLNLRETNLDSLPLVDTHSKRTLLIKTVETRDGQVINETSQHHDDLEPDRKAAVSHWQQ

B1: BC2 nanobody (VHH)
VHH: QVQLVESGGGLVQPGGSLTLSCTASGFTLDHYDIGWFRQAPGKEREGVSCINNSDDDTYYADSVKGRFTIFMDNAKDTVYLQMNSLKPEDTAIYYCAEARGCKRGRYEYDFWGQGTQVTVSS
notes: Alpaca VHH, 122 aa; also called BC2-Nb; BC2 nanotrap (BC2-Nb immobilized on agarose/Sepharose beads); not shown: C-terminal 6xHis-tag added by the pHEN6 vector
[1]
  binding result: no binding
[2]
  binding result: no binding
[3]
  binding result: binds
β-catenin peptide 85-99
  binding result: no binding (tested: 1 µg/ml BC2-Nb)

B2: BC2-NbR106E (VHH)
VHH: B1 VHH with R106E
notes: headlock mutant of BC2-Nb; immobilised on beads in this assay
BC2T D2R
  ratio: 0.1
BC2T P1Q
  ratio: 0.6
BC2T A5N
  ratio: 0.3
BC2T A5P
  ratio: 0.2
BC2T V7F
  ratio: 0.2
BC2T R3N
  ratio: 0.9

B3: BC2 nanobody (VHH)
VHH: B1 VHH
notes: immobilised on beads in this assay; also called BC2-Nb; BC2 nanotrap (immobilised)
BC2T H9E
  ratio: 0.2
